Assay results reported in PMC9755527.

What was measured:
CccR1-220 = CccR1-220 (Yersinia pseudotuberculosis, UniProt Q666X7 1-220); assay: ITC; settings: protein: recombinant; tags: His6 (pET28a) or GST (pGEX6p-1)
CccR201-380 = CccR201-380 (Yersinia pseudotuberculosis, UniProt Q666X7 201-380); assay: ITC; settings: protein: recombinant; tags: His6 (EMSA)
CccR = CccR (Yersinia pseudotuberculosis, UniProt Q666X7 1-380); assay: ITC; stoichiometry 1:2; settings: protein: recombinant; tags: His6 (pET28a) or GST (pGEX6p-1); His6 stated for EMSA; chain copies: 2

B1: PcccR 100-bp ITC probe (dsDNA)
DNA 1: ATATTCAATCGGATGTATCGCCACGGATTTTTGAGATAATCATAAAGTTACTTTTGAGATAATCTACAAATGATAATCTGTTAACATAATGGCTATAAAG
DNA 2: CTTTATAGCCATTATGTTAACAGATTATCATTTGTAGATTATCTCAAAAGTAACTTTATGATTATCTCAAAAATCCGTGGCGATACATCCGATTGAATAT
Kd (CccR1-220): 1530 ± 130 µM
Kd (CccR201-380): 6.13 ± 0.11 µM
Kd (CccR): 2.56 ± 0.12 µM
